± gives the standard deviation of the averaged measurements.
The sequences below were run on Saccharomyces cerevisiae (assay: protein stability index of tFT-peptide fusion (C-terminal peptide) (PSI (0-1 scale)); higher = more stable (slower turnover)). Settings: genetic background: wild type; temperature: 30 C.
Description: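 Multiplexed protein stability (MPS) profiling in S. cerevisiae. Random 12-aa peptides (tFT-X12 library) are fused to the C-terminus of a sfGFP-mCherry tandem fluorescent timer, after mCherry and a GGGS linker. Cells are FACS-sorted into 8 mCherry/sfGFP bins and deep-sequenced. The protein stability index (PSI) is the read-weighted bin average, scaled from 0 (unstable) to 1 (stable). Only peptides with >10 reads are reported; cells were grown at 30 °C in SC-His with glucose.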
With FPAMVRVDTCGV the protein stability index was 0.673 ± 0.059.
Sequence LVDAGGSTRGKP has a protein stability index of 0.643 ± 0.0069.
PPFPPPSPPHAL gave a protein stability index of 0.751 ± 0.1.
With LFFLPSVLPFHC the protein stability index was 0.636 ± 0.025.
DLYQRPPLPKFS showed a protein stability index of 0.688 ± 0.036.
KKKKKNNKRQKQ gave a protein stability index of 0.593 ± 0.089.
SEPPFSFLNVSP gave a protein stability index of 0.676 ± 0.018.
In the case of KGLKQLMQIRME, the protein stability index is reported as 0.605 ± 0.064.
For KIHINTMFQIKK, the protein stability index was 0.536 ± 0.051.
For VHIVTLGGVLSF, the protein stability index was 0.608 ± 0.0074.
LLRPLRRLDVSW gave a protein stability index of 0.632 ± 0.0065.
Work on VPFGPLRPALYL yielded a protein stability index of 0.708 ± 0.018.
Sequence ILRLSLPYEGYI has a protein stability index of 0.645 ± 0.032.
LALVGGACVGRV showed a protein stability index of 0.65 ± 0.044.
PCPIGGRPCRVG gave a protein stability index of 0.7275 ± 0.0037.
CGVLPTPDRHHS was tested, and the protein stability index was 0.631 ± 0.084.
Work on PPPFCPCNRLNG yielded a protein stability index of 0.702 ± 0.0078.
Sequence SGGWGGGDCVGA has a protein stability index of 0.69 ± 0.014.
Work on LAPPPLGNSSRP yielded a protein stability index of 0.704 ± 0.049.
For IVVRPAGGGTQS, the protein stability index was 0.663 ± 0.019.
In the case of QREKGEKERTET, the protein stability index is reported as 0.6783 ± 0.004.
In the case of RLLMIFTSKMFM, the protein stability index is reported as 0.6623 ± 0.0019.
Work on VGILHCELVDVS yielded a protein stability index of 0.735 ± 0.17.
PSGAHLAHLLWL showed a protein stability index of 0.719 ± 0.053.
Sequence SNNKSIRKGVSI has a protein stability index of 0.79002 ± 6.2e-05.
In the case of PFSPPPGPPPPP, the protein stability index is reported as 0.6806 ± 0.0034.
For GEEGAWSRQGPP, the protein stability index was 0.658 ± 0.035.
ERGLATGRGGWV was tested, and the protein stability index was 0.733 ± 0.064.
With EGKNEFINGTTT the protein stability index was 0.696 ± 0.023.
For PHPPPHPLFSRF, the protein stability index was 0.758 ± 0.02.
AAVRCVAEGGAP gave a protein stability index of 0.637 ± 0.036.
With TDCAPRGGRWKR the protein stability index was 0.656 ± 0.14.
In the case of PLASPRIYAQHL, the protein stability index is reported as 0.697 ± 0.016.
With GVILPVVKARLA the protein stability index was 0.472 ± 0.042.
LSIPPSLLSLPL was tested, and the protein stability index was 0.702 ± 0.025.
Work on THGMFVFSPPWF yielded a protein stability index of 0.785 ± 0.1.
Sequence DHLTGTPPSPTV has a protein stability index of 0.72 ± 0.048.
VHAGVLTMADPT was tested, and the protein stability index was 0.653 ± 0.05.
VPSSVLIPRPLF showed a protein stability index of 0.72 ± 0.081.
Sequence DGCVTVDIRRGV has a protein stability index of 0.733 ± 0.016.
MNSDQSGQGLTV was tested, and the protein stability index was 0.711 ± 0.011.
RGLVSPPPPLPS was tested, and the protein stability index was 0.681 ± 0.024.
In the case of RCFGPPSRLAYF, the protein stability index is reported as 0.683 ± 0.017.
In the case of VGRSRNGAQSNR, the protein stability index is reported as 0.65 ± 0.015.
For APRLFSPPEPPT, the protein stability index was 0.702 ± 0.038.
LLMPRTKEEYDN showed a protein stability index of 0.601 ± 0.24.
For IKKKKKEKGDST, the protein stability index was 0.713 ± 0.082.
Sequence WPLSYLPLSSPP has a protein stability index of 0.701 ± 0.01.
WSFSSGCWGYVG was tested, and the protein stability index was 0.6281 ± 0.0036.
For SLESRGLRSRHY, the protein stability index was 0.633 ± 0.073.
In the case of PREFLVYDGVRV, the protein stability index is reported as 0.6382 ± 0.0059.
WLRPRSFSVVAT showed a protein stability index of 0.52821 ± 0.00016.
In the case of ERTKKKRRKEKH, the protein stability index is reported as 0.663 ± 0.011.
With PRKTRSTTTRKS the protein stability index was 0.593 ± 0.038.
For LSPLSHPPSPAP, the protein stability index was 0.6806 ± 0.0014.
TPSLPAPGPPSP was tested, and the protein stability index was 0.735 ± 0.11.
Work on PLPFPSSPPPPP yielded a protein stability index of 0.6723 ± 0.0018.
VALEWGAVRVEG was tested, and the protein stability index was 0.569 ± 0.088.
RGGGQVLGVRVG showed a protein stability index of 0.667 ± 0.089.
MPNQTEARRKWV was tested, and the protein stability index was 0.633 ± 0.044.
In the case of PRPPLPHQRPRS, the protein stability index is reported as 0.746 ± 0.13.
For MNHHSDCLLRLW, the protein stability index was 0.648 ± 0.0084.
FCSSVSFPPAPL gave a protein stability index of 0.642 ± 0.035.
FCSPLPSSPPLP showed a protein stability index of 0.658 ± 0.028.
PVPRPSERSFLL was tested, and the protein stability index was 0.7316 ± 0.0057.
With PAGVDQPYIPGE the protein stability index was 0.6002 ± 0.0054.
For WGLGLLGGCWGV, the protein stability index was 0.679 ± 0.09.
Sequence GLMYDGVGCGGD has a protein stability index of 0.671 ± 0.012.
Work on YINIKKKKINKT yielded a protein stability index of 0.688 ± 0.039.
For VGRARRKGGGVG, the protein stability index was 0.6384 ± 0.0024.
EPPGWGRGTAQG was tested, and the protein stability index was 0.623 ± 0.07.
With KNVILKKNKNWL the protein stability index was 0.6746 ± 0.0063.
Sequence ENRGSGLQACGA has a protein stability index of 0.716 ± 0.1.
With GLVGCLFFCCIG the protein stability index was 0.558 ± 0.013.
For AHADISPIHNLH, the protein stability index was 0.627 ± 0.0066.
In the case of AEMGQDGADAGQ, the protein stability index is reported as 0.676 ± 0.01.
GGGAGGVVGGIS showed a protein stability index of 0.694 ± 0.027.
Sequence CSSGGFSLFDEA has a protein stability index of 0.7504 ± 0.0024.
Sequence GPVFLPLFWAGV has a protein stability index of 0.6846 ± 0.0051.
In the case of KTINEKKKRIEQ, the protein stability index is reported as 0.713 ± 0.055.
Work on LFPPRVSLPSHT yielded a protein stability index of 0.663 ± 0.13.
Work on PSLLSPTPPTTD yielded a protein stability index of 0.711 ± 0.075.
With FGESGSGSKRCG the protein stability index was 0.701 ± 0.12.
PPPPPSPAPGIP was tested, and the protein stability index was 0.66 ± 0.055.
Sequence APILFRICVRRL has a protein stability index of 0.541 ± 0.046.
With SLSPPSPTPSHS the protein stability index was 0.7347 ± 0.0043.
Sequence GVRYFKWGCTHG has a protein stability index of 0.684 ± 0.029.
With FCLGSFMFEGGR the protein stability index was 0.723 ± 0.032.
MNNYWKNSTKIK was tested, and the protein stability index was 0.737 ± 0.025.
Work on SELTCSSINSAT yielded a protein stability index of 0.673 ± 0.024.
With PPLPPPPPPVPA the protein stability index was 0.681 ± 0.036.
KIKNKKNKCKKK showed a protein stability index of 0.751 ± 0.14.
ILCLAPLSCYPV showed a protein stability index of 0.832 ± 0.055.
Sequence SPPALPRPPRRP has a protein stability index of 0.708 ± 0.044.
For VGGAVVWVGLVR, the protein stability index was 0.55 ± 0.031.
RLPRHLPPAPAL was tested, and the protein stability index was 0.679 ± 0.025.
Sequence RNKNNKKNKKIR has a protein stability index of 0.702 ± 0.1.
In the case of STPPPPPTFQLS, the protein stability index is reported as 0.691 ± 0.047.
Work on WDHGDHTAMVSI yielded a protein stability index of 0.683 ± 0.019.
ARRTEEVVLRSL gave a protein stability index of 0.693 ± 0.059.
PSPPSHRFPAIP showed a protein stability index of 0.697 ± 0.0081.
In the case of GLVVATECGGRP, the protein stability index is reported as 0.648 ± 0.024.
LPLPVPPPPLPS was tested, and the protein stability index was 0.654 ± 0.034.
In the case of GVWWRRVVFGRR, the protein stability index is reported as 0.696 ± 0.075.
With RNTRAVREHRNV the protein stability index was 0.726 ± 0.0092.
RPPPALWPPPSP gave a protein stability index of 0.694 ± 0.027.
With WTSPRISPRSPL the protein stability index was 0.726 ± 0.014.
With IIKMNERTLTKI the protein stability index was 0.692 ± 0.099.
In the case of LPPVLPLLPSPP, the protein stability index is reported as 0.692 ± 0.044.
For PVHPPAPHPSPP, the protein stability index was 0.663 ± 0.037.
Work on RACSLWVSVVQP yielded a protein stability index of 0.67873 ± 2.3e-05.
PLPLHPSALPSL gave a protein stability index of 0.676 ± 0.05.
RINKKRETNQGK was tested, and the protein stability index was 0.685 ± 0.05.
Work on SPPTTHPPSSHG yielded a protein stability index of 0.7486 ± 0.0062.
VLLLRPTPPLFH was tested, and the protein stability index was 0.663 ± 0.046.
CMASCTRSYYRL showed a protein stability index of 0.661 ± 0.005.
For DLYLETSCSIGG, the protein stability index was 0.6723 ± 0.0032.
In the case of LGRGGVAWGAWW, the protein stability index is reported as 0.836 ± 0.11.
KKEGKTKSIRKK was tested, and the protein stability index was 0.726 ± 0.013.
LSPPPRPPLAPP gave a protein stability index of 0.65 ± 0.039.
PRSPPPPAQPFV gave a protein stability index of 0.705 ± 0.042.
For TPSDHRRLRGSN, the protein stability index was 0.689 ± 0.045.
Work on SSLEGMRSGLCR yielded a protein stability index of 0.69 ± 0.045.
SPSPPSLLPAPS gave a protein stability index of 0.74 ± 0.062.
VELSVVHMGHTA was tested, and the protein stability index was 0.722 ± 0.0073.
Work on PRSSSPPPRSPP yielded a protein stability index of 0.669 ± 0.016.
HDPRVGDNAHFV gave a protein stability index of 0.641 ± 0.099.
PLSPPPPSPPRP gave a protein stability index of 0.645 ± 0.025.
For LHGHFIRLIRIG, the protein stability index was 0.477 ± 0.054.
In the case of VLLRRRASSISG, the protein stability index is reported as 0.671 ± 0.043.
WVGFRTFGVWGV was tested, and the protein stability index was 0.707 ± 0.063.
For VVSIIQDITLIS, the protein stability index was 0.7094 ± 0.0034.
KHIIPSAYTPEG was tested, and the protein stability index was 0.661 ± 0.023.
In the case of WHEHGGVGTYFI, the protein stability index is reported as 0.6743 ± 0.0043.
Work on SMRLELAALLVI yielded a protein stability index of 0.546 ± 0.033.
TQLNTLSTINRT showed a protein stability index of 0.71 ± 0.11.
In the case of IAFLSRCWSFYL, the protein stability index is reported as 0.49 ± 0.014.
APFPPHPPPPPS was tested, and the protein stability index was 0.707 ± 0.043.
Sequence WVGAVVGAGGRW has a protein stability index of 0.614 ± 0.089.
CWAGKITAKIDV showed a protein stability index of 0.666 ± 0.0085.
PPLPPRSPSAPL gave a protein stability index of 0.695 ± 0.034.
In the case of HRFFDGVRFPGH, the protein stability index is reported as 0.692 ± 0.038.
For FLSSFVSNHVFW, the protein stability index was 0.7914 ± 0.0032.
Work on SVWDGSRVKCST yielded a protein stability index of 0.704 ± 0.04.
With PLAWSAPCRPHT the protein stability index was 0.73 ± 0.029.
HPTSNQATGRAN showed a protein stability index of 0.692 ± 0.077.

Reference: the supplement of paper PMC10724198
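Note: PSI is a weighted mean of sequencing reads over stability bins, variants kept only with over 10 reads, mCherry proximal and sfGFP distal, peptide attached via GGGS linker.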
